Data from US20260234276A1 (DOMAIN THERAPEUTICS, published 2026).
Where “and” joins values, the source holds several entries; their conditions need not be identical. Identical values can stand only once.

Assays:
human CCR8 [1] = molecular target: T1, human CCR8 (human, UniProt P51685 1-355); test: flow cytometry, hCCR8 transfected CHOK1 cells
T1 construct: the cells are named under assay; also called hCCR8
Method: Briefly, 1·10⁵ cells per well in a 96 well plate were incubated with a dilution of unconjugated anti-CCR8 mAb at 10 μg/mL then diluted at 1/3.33, 4 dilution points (during 30 min at 4° C.). […] To determine EC50 value, 8 concentrations of anti-CCR8 mAb were tested. Unbound antibodies were washed away with PBS (Invitrogen by Thermofisher Scientific, Illkirch-Graffenstaden, France) supplemented by 2% Fetal Bovine Serum (Invitrogen by Thermofisher Scientific, Illkirch-Graffenstaden, France) and 2 mM EDTA (Invitrogen by Thermofisher Scientific, Illkirch-Graffenstaden, France). Subsequently, cells are centrifuged (5 min at 400 g) and bound antibody is detected with F(ab′)₂-Goat anti-Mouse IgG (H+L) Cross-Adsorbed Secondary Antibody, Alexa Fluor 488 (dilution 1/500) (Invitrogen by Thermofisher Scientific, Illkirch-Graffenstaden, France) or with F(ab′)₂-Goat anti-Human IgG Fc Secondary Antibody, PE (Invitrogen by Thermofisher Scientific, Illkirch-Graffenstaden, France) (dilution 1/1000) at 4° C. for 30 min. Detection reagent is washed away and cells are centrifuged (5 min at 400 g) and resuspended in 30 μL PBS. Bound detection antibody is quantified on a MacsQuant16 (Miltenyi, Gladbach, Germany) (B1 or B2 channel, 5000 events per acquisition).

human CCR8 [2] = molecular target: T1, human CCR8; test: cell-based or functional assay
pm3 = pm3 (human, sulfated tyrosine at Y17); test: ELISA on coated peptide [cont.]
Chain of pm3 (human, sulfated tyrosine at Y17) (peptide, as listed by the source): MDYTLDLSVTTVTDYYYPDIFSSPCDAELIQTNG
Method: (§1) The specific binding properties of antibodies were evaluated by ELISA with coated CCR8 related peptides (500 ng/mL) in carbonate/bicarbonate buffer. Different peptides were used as described in Table 1 (see Example 1). Each anti-CCR8 mAb was tested at 1 μg/mL then diluted at 1/10. After an incubation at room temperature during 90 min, unbound mAbs were removed by washings. […] After washings, 3,3′,5,5′-tetramethylbenzidine (TMB) (Interchim, Montlugon, France) was added for 15 min. Then the optical density (OD) was determined by using a multiplate reader (Tecan, Lyon, France) and correlated with mAb reactivity on the panel of coated peptides.

pm5 = pm5 (human, sulfated tyrosines at Y15 and Y17); test: ELISA on coated peptide [cont.]
Chain of pm5 (human, sulfated tyrosines at Y15 and Y17) (peptide, as listed by the source): as above
Method: as §1

pm8 = pm8 (human, sulfated tyrosines at Y15, Y16 and Y17); test: ELISA on coated peptide [cont.]
Chain of pm8 (human, sulfated tyrosines at Y15, Y16 and Y17) (peptide, as listed by the source): as above
Method: as §1

pm6 = pm6 (human, sulfated tyrosines at Y16 and Y17); test: ELISA on coated peptide [cont.]
Chain of pm6 (human, sulfated tyrosines at Y16 and Y17) (peptide, as listed by the source): as above
Method: as §1

human CCR8 [3] = molecular target: T1, human CCR8; test: cell-based or functional assay; remark: listed apart in the source

% positive cells (human CCR8 [1]) [%] | MFI fold change to isotype ctrl (human CCR8 [1]) [fold] | hCCL1 (100 nM) residual response, Protocol #2, mAb 0.08 µg/mL (human CCR8 [2]) [%] | hCCL1 (100 nM) residual response, Protocol #2, mAb 0.4 µg/mL (human CCR8 [2]) [%] | hCCL1 (100 nM) residual response, Protocol #2, mAb 10 µg/mL (human CCR8 [2]) [%] | hCCL1 (100 nM) residual response, Protocol #3, mAb 0.05 µg/mL (human CCR8 [2]) [%] | hCCL1 (100 nM) residual response, Protocol #3, mAb 0.5 µg/mL (human CCR8 [2]) [%] | hCCL1 (100 nM) residual response, Protocol #3, mAb 5 µg/mL (human CCR8 [2]) [%] | binding result (pm3) | binding result (pm5) | binding result (pm8) | binding result (pm6) | IC50 (Gi2 BRET, pH 6.5) (human CCR8 [3]) | IC50 (Gi2 BRET, pH 7.4) (human CCR8 [3]) | Binder
81.1 | 10.7 | 79 | 38 | 17 | 102 | 64 | 47 | binds | binds | binds | binds | 0.044 µg/ml and 0.292 nM | 0.061 µg/ml and 0.405 nM | 3-28 (antibody, V domains shown) VH: EVQLQQSGPELLKPGTSVKISCTTSGYTFSDYTLHWVKQSHGKSLEWIGGITPKNGDTRYDPRFKDKATLTIDKSSSAAYMELRSLTSEDSAVYYCARVARFYGVSPYAMDYWGQGASVTVSS VL: DVVMTQTPLSLPVSLGDQASISCRCTQSLLHSNGDTYLHWYLQKPGQSPKLLIYKVSNRFSGVPDRFSGSGSGTDFTLEITRVEAEDLGVYFCSQTTHVPYTFGGGTKLEIK
71.3 | 6.26 | 73 | 51 | 24 | 69 | 38 | 30 | binds | binds | binds | binds | 0.011 µg/ml and 0.073 nM | 0.007 µg/ml and 0.047 nM | 3-29 (antibody, V domains shown) VH: QVHLVETGGGLVRPGNSLKLSCVTSGFTLSNYRMHWLRQPPGKRLEWIAVIKVKSDNYGANYAESVKGRFTISRDDAKSSVYLQMNRLREEDTATYYCSRPDGFSPFVYWGQGTLVTVSA VL: DIKMTQSPSSMYASLGERVTITCKASQDINSYLSWFQQKPGKSPKTLIYRANRLVDGVPSRFSGSGSGQDYFLTISSLEYEDMGIYYCLQYGEFPPTFGAGTKLELK
90.6 | 22.7 | 60 | 36 | 19 | 74 | 68 | 48 | binds | binds | binds | binds | 0.03 µg/ml and 0.198 nM | 0.031 µg/ml and 0.21 nM | 3-11 (antibody, V domains shown) VH: EVQLVESGGGLVQPKGSLKLSCAASGFTFNTYAMNWVRQAPGKGLEWVARIRSKSNNYATYYADSVKDRFTISRDDSQSMLYLQMNNLKTEDTAMYYCVRGREAYYRYDGGYYAMDYWGQGTSVTVSS VL: DIVMTQAAPSVPVTPGESVSISCRSSKSLLHSNGNTYLYWFLQRPGQSPQLLIYRMSNLASGVPDRFSGSGSGTAFTLRISRVEAEDVGVYYCMQHLEYPFTFGSGTKLEIK
68.5 | 5.12 | 70 | 44 | 51 | 78 | 55 | 43 | binds | binds | binds | binds | 0.053 µg/ml and 0.355 nM | 0.063 µg/ml and 0.421 nM | 3-30 (antibody, V domains shown) VH: EVQLVESGGGLVQPKGSLRLSCAASGFTFNAYAMNWVRQAPGKGLEWVARIRSKSNNYATYYGDSVKDRFTISRDDSQTMLYLQMNNLKTEDTAMYYCVRGREAYYRYDGDYYAMDYWGQGTSVTVSS VL: not shown
67.8 | 6.11 | 99 | 85 | 68 | 86 | 75 | 48 | binds | binds | binds | binds | 0.031 µg/ml and 0.208 nM | 0.017 µg/ml and 0.115 nM | 3-45 (antibody, V domains shown) VH: EVQLVETGGGLVQPKGSLKLSCAASGFTFNANAMNWVRQAPGKGLEWVARIRSKSNNYATYYADSVKDRFTISRDDSQSMLYLQMNNLKTEDTAMYYCVRGSDNYIFYAMDYWGQGTSVTVSS VL: DIVMTQAAPSVPVTPGESVSISCRSSKSLLHSNGNTYLYWFLQRPGQSPQLLIYRMSNLASGVPDRFSGSGSGTAFTLRISRVEAEDVGVYYCMQHLEYPFTFGGGTKLEIK
81.8 | 16.2 | 88 | 57 | 46 | 73 | 36 | 36 | binds | binds | binds | binds | 0.071 µg/ml and 0.476 nM | 0.089 µg/ml and 0.596 nM | 3-32 (antibody, V domains shown) VH: EVQLVESGGGLVQPKGSLKLSCAASGFTFNAYAMNWVRQAPGKGLEWLARIRSKSNNYATYYADSVKDRFTISRDDSQSMFYLQMNNLKSEDTAMYYCVRGREAYYRYDGGYYAMDYWGQGTSVTVSS VL: EIVMTQAALSAPVTPGESVSMSCRSSKSLLHSNGNTYLYWFLQRPGQSPQLLIYRMSNLASGVPDRFSGSGSGTAFTLRISRVEAEDVGVYYCMQHLEYPFTFGSGTKLEIK
66.8 | 5.06 | 72 | 49 | 28 | 75 | 36 | 22 | binds | binds | binds | binds | 0.034 µg/ml and 0.225 nM | 0.065 µg/ml and 0.434 nM | 3-14 (antibody, V domains shown) VH: EVQLVESGGGLVQPTGSLRLSCAASGFTFNAYAMNWVRQAPGKGLEWVARIRSKSNDYATYYGDSVKDRFTISRDDSQSMLYLQMNNLKTEDTAMYYCVRGREAYYRYDGGYYAMDYWGQGTSVTVSS VL: DIVMTQAAPSVSVTPGESVSISCTSSKSLLHSNGNTYLYWFLQRPGQSPQLLIYRMSNLASGVPDRFSGSGSGTAFTLRISRVEAEDVGVYYCMQHREYPFTFGSGTKLEIK
83 | 17.6 | 93 | 89 | 48 | 92 | 68 | 50 | binds | binds | binds | binds | 0.014 µg/ml and 0.095 nM | 0.004 µg/ml and 0.026 nM | 3-48 (antibody, V domains shown) VH: QVQLVETGGGLVRPGNSLKLSCVTSGFTFSNYRMHWLRQPPGKRLEWIAVIKVKSDNYGANYAESVKGRFTISRDDSKSSVYLQVNRLREEDTATYYCSSPTYPGSSGFAYWGQGTLVTVSA VL: DIQMTQTTSSLSASLGDRVTISCRASQDISNYLNWYQQKPDGTVKLLIYYTSRLHSGVPSRFSGSGSGTDYSLTISNLEQEDIATYFCQQGNKFPPTFGGGTKLEIN
